Columns and labels:
[1] = target: Axl extracellular domain (EC-Axl) (UniProt P30530 P30530:26-451); assay: filter; PBS, 0.01% BSA, 37 C, 15 min; unrelated aptamer background subtracted; conditions: tags: soluble extracellular domain, R&D Systems; label: 5'-32P
Protocol: (§1) 1 nM of radiolabelled aptamers (GL21 52-85 or Unrelated) were incubated with 1, 3.2, 10, 32, 100, 320 and 1000 nM of Axl, Dtk, Mer soluble extracellular domain (all from R&D Systems, Minneapolis, Minn.) for 15 min at 37° in phosphate-buffered saline (PBS) supplemented with 0.01% bovine serum albumin.
(§2) After incubation, the aptamer-protein mix was passed through nitrocellulose membrane filter (Millipore Co., Bedford, Mass.) and filters were counted.

[2] = target: T1, Dtk (Tyro3) extracellular domain (EC-Dtk) (UniProt Q06418 Q06418:41-429); assay: as above; conditions: tags: soluble extracellular domain, R&D Systems; label: 5'-32P
T1 sequence: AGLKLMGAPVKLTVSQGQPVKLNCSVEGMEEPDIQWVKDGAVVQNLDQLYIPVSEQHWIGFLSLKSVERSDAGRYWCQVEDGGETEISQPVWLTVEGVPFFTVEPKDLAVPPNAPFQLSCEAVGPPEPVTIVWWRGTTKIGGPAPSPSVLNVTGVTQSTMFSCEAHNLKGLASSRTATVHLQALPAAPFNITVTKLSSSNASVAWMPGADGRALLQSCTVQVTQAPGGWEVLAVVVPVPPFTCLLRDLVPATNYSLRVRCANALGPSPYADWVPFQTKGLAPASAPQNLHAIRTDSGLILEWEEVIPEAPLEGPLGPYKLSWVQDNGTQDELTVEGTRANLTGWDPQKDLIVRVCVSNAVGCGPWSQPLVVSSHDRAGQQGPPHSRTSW
Protocol: as §1, §2

[3] = target: Axl receptor tyrosine kinase (cell surface) (Homo sapiens, UniProt P30530 P30530:26-894); assay: binding to Axl-positive U87MG cells; reduced by Axl shRNA; binds Axl-transfected SKBr3 but not parental SKBr3; conditions: label: 5'-32P
[4] = target: T2, Mer extracellular domain (EC-Mer) (UniProt Q12866 Q12866:21-505); assay: filter; no Kd calculable up to 1000 nM protein; no binding or affinity at least 10^3 lower; PBS, 0.01% BSA, 37 C; conditions: tags: soluble extracellular domain, R&D Systems; label: 5'-32P
T2 sequence: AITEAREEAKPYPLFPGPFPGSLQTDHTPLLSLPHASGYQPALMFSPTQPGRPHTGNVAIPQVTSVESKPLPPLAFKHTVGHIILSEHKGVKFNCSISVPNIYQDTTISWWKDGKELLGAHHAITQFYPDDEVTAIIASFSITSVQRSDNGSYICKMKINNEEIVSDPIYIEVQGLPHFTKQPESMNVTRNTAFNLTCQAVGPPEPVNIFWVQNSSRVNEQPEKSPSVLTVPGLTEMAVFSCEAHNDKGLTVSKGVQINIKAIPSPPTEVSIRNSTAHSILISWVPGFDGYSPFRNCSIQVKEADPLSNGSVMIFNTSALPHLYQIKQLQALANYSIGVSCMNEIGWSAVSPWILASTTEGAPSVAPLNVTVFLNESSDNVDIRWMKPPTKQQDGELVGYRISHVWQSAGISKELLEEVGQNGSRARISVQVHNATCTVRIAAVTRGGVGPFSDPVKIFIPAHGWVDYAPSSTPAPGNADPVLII
Protocol: as §1, §2

Sequence of Axl receptor tyrosine kinase (cell surface) (P30530 26-894, one chain of several): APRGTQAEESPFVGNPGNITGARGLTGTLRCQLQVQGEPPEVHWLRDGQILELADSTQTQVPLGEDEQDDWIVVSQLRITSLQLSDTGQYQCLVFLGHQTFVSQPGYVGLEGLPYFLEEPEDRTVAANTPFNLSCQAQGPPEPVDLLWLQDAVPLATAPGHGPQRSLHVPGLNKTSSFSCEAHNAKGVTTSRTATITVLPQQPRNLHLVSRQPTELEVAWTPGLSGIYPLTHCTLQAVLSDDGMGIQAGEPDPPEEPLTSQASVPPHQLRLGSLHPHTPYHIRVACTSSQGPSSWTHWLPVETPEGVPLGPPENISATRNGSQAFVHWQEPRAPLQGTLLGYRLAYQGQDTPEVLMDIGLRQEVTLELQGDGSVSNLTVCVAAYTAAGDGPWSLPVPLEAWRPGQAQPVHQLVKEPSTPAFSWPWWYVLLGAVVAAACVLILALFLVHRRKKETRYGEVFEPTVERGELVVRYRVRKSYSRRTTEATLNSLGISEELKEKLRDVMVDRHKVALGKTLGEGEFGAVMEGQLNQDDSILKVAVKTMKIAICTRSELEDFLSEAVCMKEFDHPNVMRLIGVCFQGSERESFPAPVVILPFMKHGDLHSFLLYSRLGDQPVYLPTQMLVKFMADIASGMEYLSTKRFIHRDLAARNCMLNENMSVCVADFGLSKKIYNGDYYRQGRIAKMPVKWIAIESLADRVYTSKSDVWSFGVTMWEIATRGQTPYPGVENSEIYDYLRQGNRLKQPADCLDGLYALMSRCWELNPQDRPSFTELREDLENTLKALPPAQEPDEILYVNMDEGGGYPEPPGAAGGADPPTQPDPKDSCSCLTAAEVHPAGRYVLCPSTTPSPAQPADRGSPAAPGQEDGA
Sequence of Axl extracellular domain (EC-Axl) (P30530 26-451, one chain of several): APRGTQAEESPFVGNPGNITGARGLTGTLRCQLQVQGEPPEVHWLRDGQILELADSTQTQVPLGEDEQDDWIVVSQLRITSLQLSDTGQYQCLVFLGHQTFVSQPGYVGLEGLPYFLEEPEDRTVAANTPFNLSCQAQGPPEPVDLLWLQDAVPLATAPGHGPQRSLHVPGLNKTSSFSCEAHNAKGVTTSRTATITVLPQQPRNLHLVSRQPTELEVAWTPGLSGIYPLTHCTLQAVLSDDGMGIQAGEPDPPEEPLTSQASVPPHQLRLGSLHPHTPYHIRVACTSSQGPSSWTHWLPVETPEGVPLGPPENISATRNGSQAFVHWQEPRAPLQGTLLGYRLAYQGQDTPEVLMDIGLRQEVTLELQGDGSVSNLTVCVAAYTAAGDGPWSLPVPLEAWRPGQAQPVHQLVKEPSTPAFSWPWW

AUGAUCAAUCGCCUCAAUUCGACAGGAGGCUCAC (ssRNA, 2'-F on all pyrimidines) [GL21 52-85 (GL21.T)]
Kd [1]: 13 nM | Kd [2]: 47 nM | Kd [3]: 90 nM | binding result [4]: no binding
